# Source: US20150359861
# Biological target: Nicotinamide phosphoribosyltransferase (Nampt) (UniProt P43490)
# Chain of UniProt P43490 (P43490 whole entry, looked up): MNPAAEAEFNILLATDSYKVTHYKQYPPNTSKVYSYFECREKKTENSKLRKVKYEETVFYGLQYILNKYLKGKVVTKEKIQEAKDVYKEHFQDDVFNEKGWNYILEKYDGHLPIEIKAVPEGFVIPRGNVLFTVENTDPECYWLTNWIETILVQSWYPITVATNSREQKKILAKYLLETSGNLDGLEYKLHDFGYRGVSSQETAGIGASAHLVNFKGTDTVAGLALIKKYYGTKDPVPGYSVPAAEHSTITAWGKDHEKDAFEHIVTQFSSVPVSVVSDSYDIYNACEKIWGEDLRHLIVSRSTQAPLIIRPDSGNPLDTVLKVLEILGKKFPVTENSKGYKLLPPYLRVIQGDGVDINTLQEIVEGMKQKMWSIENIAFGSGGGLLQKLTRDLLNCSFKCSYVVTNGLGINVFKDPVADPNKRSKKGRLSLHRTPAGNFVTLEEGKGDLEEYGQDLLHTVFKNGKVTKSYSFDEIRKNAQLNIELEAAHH
substance,measurement,value
purified recombinant human Eno1,Nampt activity (Cyclex Nampt activity assay kit on anti-Nampt immunoprecipitates of lysates from myotubes treated with 500 or 1000 ug/ml Eno1 for 48 hours),Eno1 treatment increased Nampt activity
